Results as given in patent publication US10918700B2, “Lipid-based nanoparticles and use of same in optimized insulin dosing regimens” (SDG, Inc., priority 2019, dated 2021).

What was measured:
[1] = system: type 1 diabetes mellitus (T1DM); test: ISLE-1 26-week Phase 2b randomized double-blind trial: A1c; format: in vivo, human; details: ITT, 26 weeks
Procedure: ISLE-1 was a 26-week, Phase 2b, multicenter, randomized, double-blind, non-inferiority trial.
(§1) ISLE-1 was a 26-week, Phase 2b, multicenter, randomized, double-blind, trial in T1DM treated with multiple daily injections (MDI) of insulin.
Main exclusion criteria were total insulin dose ≥1.5 IU/kg/day or NPH insulin as basal.
Prandial dosing of HDV-lispro or control lispro was 15 minutes prior to the meal, and basal insulins were administered either as a single daily dose or a divided twice per day dosing, every 12 hours.
(§2) Informed of ˜10% dilution, participants continued their current insulin parameters. Hypoglycemia was recorded on Case Report Forms (CRFs) based on subject diaries and SMBG records, subjectively investigator-judged as “mild,” “moderate,” “severe,” or “life threatening.” Blinded continuous glucose monitoring (CGM) (Dexcom G4) was used for 5-7 days to assess glucose at baseline, weeks 13 and 26. A1c, lipids, and liver enzymes were measured approximately monthly. Liver fat content MRIs were performed in a subset.
The intent to treat (ITT) population included all randomized subjects receiving at least one dose of study treatment. Safety analyses included all randomized subjects. […] Mean A1c change was analyzed using ANCOVA within intent-to-treat (ITT) cohort at each visit. […]

[2] = system: type 1 diabetes mellitus (T1DM); test: ISLE-1: hypoglycemia (CRF-reported and blinded CGM)
Procedure: as §1, §2
The intent to treat (ITT) population included all randomized subjects receiving at least one dose of study treatment. Safety analyses included all randomized subjects. […] Mean A1c change was analyzed using ANCOVA within intent-to-treat (ITT) cohort at each visit. […] Poisson regression models adjusting for site as random effect compared “severe” hypoglycemia incidence rates within A1c groups, testing for baseline A1c by treatment group interaction. Event number/subject was truncated at 15, accounting for extreme outliers.

[3] = system: type 1 diabetes mellitus (T1DM); test: ISLE-1: lipids, liver enzymes, liver fat MRI, adverse events; format: in vivo, human; details: over study
Procedure: as §1, §2
The intent to treat (ITT) population included all randomized subjects receiving at least one dose of study treatment. Safety analyses included all randomized subjects. […] Mean A1c change was analyzed using ANCOVA within intent-to-treat (ITT) cohort at each visit. […] Direct likelihood models were used for treatment arm A1c comparisons, % time <54 mg/dL, bolus insulin, and basal insulin within the two A1c subgroups. Poisson regression models adjusting for site as random effect compared “severe” hypoglycemia incidence rates within A1c groups, testing for baseline A1c by treatment group interaction. Event number/subject was truncated at 15, accounting for extreme outliers.

[4] = system: type 1 diabetes mellitus (T1DM); test: Continuous glucose monitoring results, Good to Great Hypoglycemia study (Table 1); format: in vivo, human
Procedure: A1c, lipids, and liver enzymes were measured approximately monthly. Liver fat content MRIs were performed in a subset.
Safety analyses included all randomized subjects.
Table 1 summarizes continuous glucose monitoring results in the Good to Great Hypoglycemia study, in terms of increased HDV-related hypoglycemia events.

type 1 diabetes (T1D) = test: Example 3, 6-month open label study: insulin dosing, A1C, mean daily glucose, weight; format: in vivo, human; details: 61 enrollees, mean baseline A1C 7.3
Text: Subcutaneous (SC) insulin is non-physiologic, since pancreatic insulin goes first to the liver. The present study was designed to determine whether delivery of Hepatic Directed Vesicles (HDV) admixed with lispro/HUMALOG® (HDV-L) decreases hypoglycemia in well controlled patients on multiple daily injections (MDI) with type 1 diabetes (T1D) using unblinded Dexcom G6 continuous glucose monitoring (CGM).
This study was a 6-month (mo) open label study of prandial insulin (lispro, 3 mo, then HDV-L, 3 mo) with basal insulin degludec (TRESIBA®) and unblinded continuous glucose monitoring (CGM) in T1D with baseline A1C 6.5-8.5%. Insulin dosing, hypoglycemia, and daily glucose control were among the monitored parameters.
In this study the target fasting blood glucose was 80-100 mg/dL. At 3 mo subjects were randomized to −10% or −40% basal dose to encourage titration with HDV-L. Physicians titrated basal insulin weekly. A hypoglycemic event was defined as ≥15 min of CGM≤54 mg/dL.

insulin lispro was tested, and the “Mean change in A1c baseline to Week 26” value [1] was −0.16%, the “CRF-reported incidence of "severe" hypoglycemia” value ([2]; baseline A1c<8.5%) was 21 events/100 person-years and the “time <54 mg/dL during Week 26 (median)” value ([2]; baseline A1c<8.5%, CGM) was 0.6%. The “CRF-reported incidence rate of "severe" hypoglycemia” value ([2]; baseline A1c≥8.5%) was 97 events/100 person-years, the “percentage time <54 mg/dL during Week 26 (median)” value ([2]; baseline A1c≥8.5%, CGM) was 2.6% and the “change in total cholesterol” value [3] was 7.3 mg/dL. The “% Time <54 mg/dL, median” value ([4]; Baseline) was 2.1%, the “% Time <70 mg/dL, median” value ([4]; Baseline) was 5.8% and the “Area above curve <54 mg/dL, median” value ([4]; Baseline) was 0.1. For the same substance, the “Area above curve <70 mg/dL, median” value ([4]; Baseline) was 0.9, the “% Time <54 mg/dL, median” value ([4]; Endpoint) was 1.7% and the “% Time <70 mg/dL, median” value ([4]; Endpoint) was 5.6%. For the same substance, the “Area above curve <54 mg/dL, median” value ([4]; Endpoint) was 0.1, the “Area above curve <70 mg/dL, median” value ([4]; Endpoint) was 0.7 and the “A1C after 3 mo optimization” value (type 1 diabetes (T1D)) was 6.9%.
